In the nanobody polyreactivity screen of Harvey et al. (2022):

Experiment: yeast display, Sf9 membrane polyspecificity reagent, FACS + sequencing; frameworks hold sequencing errors
Procedure, shortened: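 Galactose induction of a Saccharomyces cerevisiae BJ5465 synthetic nanobody display library ran 36–48 hours. The cells were then stained for 1 hour at 4 °C with 10% biotinylated, detergent-solubilized Sf9 membrane reagent, pulled down on streptavidin microbeads and FACS-sorted into low and high (top ~1%) gates on expression and reagent-binding fluorescence. Labels for polyreactivity follow the gate of origin.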

Sequence	polyreactivity (PSR sort gate)
QVQLVESGGGLVQAGGSLRLSCAASGRIFAINTMGWYRQAPGKERELVAAINNGGSTNYADSVKGRFTISRDNAKNTVYLQMNSLKPEDTAVYYCAAEGLPYVRVFDFVSRYDYWGQGTQVTVSS	low polyreactivity
QVHLVESGGGLVQAGGSLRLSCAASGRILGDYAMGWYRQAPGKEREFVAAIDYNGGSTNYADSVKGRFTISRDNAKNTVYLQMNSLKPEDTAVYYCAAPGFPSRNGFGYWGQGTQVTVSS	low polyreactivity
QVQLVESGGGLDQAGGSLRLSCAASGIIFAANAMGWSRQAPGKERELVAAISKNGGITYYADSVQGRFTISRDNAKNTVDLQRNSLKPEDTAVYYCAARWRQTRSYYYWGQGTQVNVSS	high polyreactivity
QGQLEESGGGLVQAGGSLRLSCAASGRTFAFYTMGWYRQAPGKERELVAAITRGGSTYYADSVKGRFTISRDNAKNTVYVQMNSLKPEDTAVYYCAASTRYYSQQFDYWGQGTQVTVSS	high polyreactivity
QVQLVESGGVLVQAGGSLRLSCADSGRTFYTNAMGWYRQAPGKERELVAAITGSDGNTYYADSVKGRFTISRENAKNTVYLQMISLKAEDTAVYYGFDYWVQGTQVTVSS	low polyreactivity
QVQLVESGGGLVQAGGSLRLSCAASGSTFGINAMGWYRQAHGKERELVARISSGVRTYYADSVKGRFTISRDNAKNTVYLQMNSLKPEDTAVYYCAAVYYRGVDRAILSYRYYYWGQGTQVTVSS	high polyreactivity
QVQLVESGGGLVQAGGSLRLSCAASGYTFASNAMGWYRQAPGKERELVAAITRGGSTNYADSVKGRFTISRDNAKNTVYLQMNSLKPEDTAVYYCAAPRYRHTRKGGYWGQGTQVTVSS	low polyreactivity
QVQLVESGGGLVQAGGSLRLSCADSGSGGYAMGWYRQAPGKERELVAAIDNGGSTYYADSVKGRFTISRDNAKNTVYLQMNSLKPEDTAVYYCAAAYRDYTQVTAGDYWGQGTQVTVSS	low polyreactivity
QVQLVESGGGLVQAGGSLRLSCAASGRTSVSYAMGWYRQAPGKERELVASITSGGSTYYADSVKGRFTISRDNAKNTVYLQMNSLKPEDTAVYYCAARGRNVAGYKGGYWGQGTQVTVSS	high polyreactivity
QGQLVESGGGLVQAGGSLRLSCAASGSIFFGNAMGWYRQAPGKERELVAGITGGGSTYYADSVKGRFTISRDNAKNTVYLQMNSLKPEDTAVYYCNKKAYRKTGMDYWGQGTQVTVSS	low polyreactivity
QVQLVESGGGLVQAGGILRLSCAASGFTFDFNAMGWYRQAPGKERELVAAISSGASTNYADSVKGRYTISRDNAKNTVYLQMNRVIPLDSEVYYCAVYFYGSSTRSYQARFDYWGQGTQVTVSS	high polyreactivity
QAQLVESGGGLVQAGGSLRLSCAASGYTFTANVMGWYRQAPGKERELVAAISWSGTSTSYADSVKGRFTISRDNAKNNVYLQMNSLKPEDTAVYYCNTVPYYTGSNGYWGQGTQVTVSS	low polyreactivity
QFQLVESGGGLVQAGGSLRLSYAASGRTFSSYAMGWYRQAPGKERELVAAITKRGGNTYYADSVKGRFTISRDNAKNTVYLQMNSLKPEDTAVYYCAAGWERFRNYNYWGQGTQVTVSS	high polyreactivity
QVQLVESGGGLVQAGGSLRLSCAASGRIFLRNDMGWYRQAPGKVRELVAGISSDGSTYYADSVKGRFTISRDNAKNTVYLQMTSLKPEDTAVYYCNAEDTPGAGDGNWGQGTQVTVSS	low polyreactivity
QVQLVESGGGLVQAGGSLRLSCAPSGRTFYINAMGWYRQAPGKEREFVAAITTSGGGTYYADSVKGRFTISRDNAKNTVYLQMNSLKPEDTAVYYCNTRSRRGKDGRYDYWGQGTQVTVSS	high polyreactivity
QVQLVESGGGLVQAGGSLRLSCAASGYTFKTNDMGWSRQAPGKEREFVAAIDSGGNTYYADSVKGRFTISRDNAKNTVYLQMNSLKPEDTAVYYCAAYRDYQYDYWGQGTQVTVSS	low polyreactivity

Sequence	polyreactivity (PSR sort gate)
QVQLVESGGGIVQAGGSLRLSCAASGLIFLDNAMGWYRQAPGKEREFVAAIDSGGSTNYADSVKGRFTISRDNAKNNVYLQMNSLKPEDTAVYYCAAVWIYAPWYYQESVEYYYWGQGTQVSVSS	low polyreactivity
QVQLVESGGGLVQAGGSLRLSCAASGRTFGSNAMGWYRQAPGKERELVAAISVRGGRTYSADSVKGRFTISRDNAKNTVSLQMNSLKPEDTAVYYCAADPYPISKYWFYHAVDYDSWGQGTQVTVSS	high polyreactivity
QVQLLESAGGLVQAGGSLRLSCAASGTIGYNGWYRQAPGKERELVAAISTRDGSTYYADSVKGRFTISRDNAMNTGYLQINSLKPEDTAVYYCAARYPSDYDYWGQGTQVTVSS	low polyreactivity
QVQLVESGGGLVQAGGSLRLSCAASGYNFNYAMGWYRQAPGKERELVAAISRRGGSTYYADSVKGRFTISRDNAKNTVYLQMNSLTPEDTAVYYCAARLPGYFGIGDYWGQGTQVTVSS	high polyreactivity
QVQLVESGGGLDQAGGSLRLSCAASGLIFRPYDMGWYSQAPGKERELVAAISNGDSTNYADSVKGRFTISRDNAKNTDYLEMNSLKPEDTAVYYCNAAIPSWLEYEYWGQGTQVTVSS	low polyreactivity
QVQLVESGGGLVEAGGSLRISCAASGYIFLRNAMGWYRQAPGKERELVAAIRRTGGSTYYADSVKGRFTISRDNAKNSVYVQMNSLKPEASAVYYCAKRSYTGYEYWGQGNQVTVSS	low polyreactivity
QVQLVESGGGLVQAGGSLRLSCAASGIIFYPNAMGWYRQAPGKERELVAAISWRSGSTYYADSVKGRFTISRDNAKNTVYLQMNSLKPEDTAVYYCAADRRRSYIWRYDYWGQGTQVTVSS	low polyreactivity
QVQLVESGGGLVQAGGSLRLSCAASGLIFSGYAMGWYRQAPGKERELVAAINSGTSTTYADSVKGRFTISRDNAKNTVYLQMNSLKPEDTAVYYCNTPHNQDKPYPGYDYWGQGTQVTVSS	low polyreactivity
QVQLVESGGGLVQAGGSLRLSCAASGRIFPPYAMGWYRQAPGKERELVATISYTGGSTYYADSVKGRFTISRDNAKNTVYLQMNRLKPEDTAVYYCNAEYYYWNREGDYWGQGTQVTVSS	low polyreactivity
QVQLVESGGGLVQAGGSLRLSCAASGSIFTDNAMGWYRQAPGKERELVAAITGRGGNTYYADSVKGRFPISRDIAKNPVYLQMNSLKPEDTAVYYCAARIFRTRKPLGYWGQGTQVTVSS	high polyreactivity
QVQLVESGGGLVQAGGRLRLSCAASGSIFSRNAMGRYRQATGKESELVAAISRGGSTNYADSVKGRFTISRDNAKNTVYLQMNSLKPEDTAVYYCANVGRRSWYRWLGPLWYGGMDYWGQGTQVTVSS	low polyreactivity
QVQLVESGGGLVQAGGSLRLSCAASGGTFGYNVMGWYRQAPGKERELVAAISYSVGGTYYADSVKGRFTISRDNAMNTVYLQMNSLKPEDTAVYYCAATGRRRTYSEYEYWGQGTQVTVSS	high polyreactivity
QVQLVESGGGLVQAGGSLRLSCAASGGIFGYNAMGWYRQAPGKERELVAAISRGTTTNYADSVKGRFTISRDNAKNTVYLQMNSLKPEDTAVYYCAADQPSKRYYYWGQGTQVTVSS	low polyreactivity
QVQLVESGGGLVQAGGSLRLSCAASGRTSYGYAMGWYRQAPGKERELVAGISRSGSSTYYADSVKGRFTISRDNAKNTVYLQMNSMKPEDNAVYYCNAARPFNRVPRQTWKMGYWGQGTQVTVSS	high polyreactivity
QVQLVESGGGLVQAGGSLRLSCAPSGRIFNAYAMGWYRQAPGKERELVAAITVSGTRTYYADSVKGRFTISRDNAKNTVYLQMNSLKPEDSAVYYCNAGRGGVLDYGYWGQGTQVTVSS	high polyreactivity
QVQLVQSGGGLVQAGGSLRLSCAGSGYILQINAMGWYRQAPGKERELVAAISISGGNTYYADSVKGRFTNSRDNAKNTVYLQMNSLKPEDSAVYYCAAYRFYSYLVRYGLLLAYYYWGQGTQVTVSS	low polyreactivity
